In patent US20150344570A1 (published 2015):

T1: FcγRIIb extracellular domain with C-terminal His tag (human, UniProt P31994 43-217)
T1 construct: extracellular domain; also called FcgRIIb; 2b
T1 sequence (looked up): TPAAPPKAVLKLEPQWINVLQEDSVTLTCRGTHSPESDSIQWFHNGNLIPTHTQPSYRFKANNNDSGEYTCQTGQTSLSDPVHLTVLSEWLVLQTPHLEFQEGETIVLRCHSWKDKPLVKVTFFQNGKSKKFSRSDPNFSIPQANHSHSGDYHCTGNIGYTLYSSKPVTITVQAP

B1: GpH7-A5/GpH7-B3 variant P238_06M/GpL16-k0 (antibody, human IgG1, kappa)
heavy 1: not shown
heavy 2: not shown
light: DIVMTQSPLSLPVTPGEPASISCQASESLVHSNRNTYLHWYLQKPGQSPQLLIYKVSNRFSGVPDRFSGSGSGTDFTLKISRVEAEDVGVYYCSQNTHVPPTFGQGTKVEIERTVAAPSVFIFPPSDEQLKSGTASVVCLLNNFYPREAKVQWKVDNALQSGNSQESVTEQDSKDSTYSLSSTLTLSKADYEKHKVYACEVTHQGLSSPVTKSFNRGEC
notes: also called He Ab P238_06M
B2: GpH7-A5/GpH7-B3 variant S267_06M/GpL16-k0 (antibody, human IgG1, kappa)
heavy 1: not shown
heavy 2: not shown
light: B1 light
notes: also called He Ab S267_06M
B3: GpH7-A5/GpH7-B3 variant N325_20W/GpL16-k0 (antibody, human IgG1, kappa)
heavy 1: not shown
heavy 2: not shown
light: B1 light
notes: also called He Ab N325_20W
B4: GpH7-A5/GpH7-B3 variant L328_10E/GpL16-k0 (antibody, human IgG1, kappa)
heavy 1: not shown
heavy 2: not shown
light: B1 light
notes: also called He Ab L328_10E
B5: GpH7-A5/GpH7-B3 variant N325_08L/GpL16-k0 (antibody, human IgG1, kappa)
heavy 1: not shown
heavy 2: not shown
light: B1 light
notes: also called He Ab N325_08L
B6: GpH7-A5/GpH7-B3 variant L328_13S/GpL16-k0 (antibody, human IgG1, kappa)
heavy 1: not shown
heavy 2: not shown
light: B1 light
notes: also called He Ab L328_13S
B7: GpH7-A5/GpH7-B3 variant P331_10E/GpL16-k0 (antibody, human IgG1, kappa)
heavy 1: not shown
heavy 2: not shown
light: B1 light
notes: also called He Ab P331_10E
B8: GpH7-A5/GpH7-B3 variant S267_19Q/GpL16-k0 (antibody, human IgG1, kappa)
heavy 1: not shown
heavy 2: not shown
light: B1 light
notes: also called He Ab S267_19Q
B9: GpH7-A5/GpH7-B3 variant P238_15Y/GpL16-k0 (antibody, human IgG1, kappa)
heavy 1: not shown
heavy 2: not shown
light: B1 light
notes: also called He Ab P238_15Y
B10: GpH7-A5/GpH7-B3 variant L328_02A/GpL16-k0 (antibody, human IgG1, kappa)
heavy 1: not shown
heavy 2: not shown
light: B1 light
notes: also called He Ab L328_02A
B11: GpH7-A5/GpH7-B3 variant P331_16H/GpL16-k0 (antibody, human IgG1, kappa)
heavy 1: not shown
heavy 2: not shown
light: B1 light
notes: also called He Ab P331_16H
B12: GpH7-A5/GpH7-B3 variant K326_20W/GpL16-k0 (antibody, human IgG1, kappa)
heavy 1: not shown
heavy 2: not shown
light: B1 light
notes: also called He Ab K326_20W
B13: GpH7-A5/GpH7-B3 variant L234_20W/GpL16-k0 (antibody, human IgG1, kappa)
heavy 1: not shown
heavy 2: not shown
light: B1 light
notes: also called He Ab L234_20W
B14: GpH7-A5/GpH7-B3 variant N325_07I/GpL16-k0 (antibody, human IgG1, kappa)
heavy 1: not shown
heavy 2: not shown
light: B1 light
notes: also called He Ab N325_07I
B15: GpH7-A5/GpH7-B3 variant P331_15Y/GpL16-k0 (antibody, human IgG1, kappa)
heavy 1: not shown
heavy 2: not shown
light: B1 light
notes: also called He Ab P331_15Y
B16: GpH7-A5/GpH7-B3 variant P238_03V/GpL16-k0 (antibody, human IgG1, kappa)
heavy 1: not shown
heavy 2: not shown
light: B1 light
notes: also called He Ab P238_03V
B17: GpH7-A5/GpH7-B3 variant G237_20W/GpL16-k0 (antibody, human IgG1, kappa)
heavy 1: not shown
heavy 2: not shown
light: B1 light
notes: also called He Ab G237_20W
B18: GpH7-A5/GpH7-B3 variant L234_09D/GpL16-k0 (antibody, human IgG1, kappa)
heavy 1: not shown
heavy 2: not shown
light: B1 light
notes: also called He Ab L234_09D
B19: GpH7-A5/GpH7-B3 variant P238_20W/GpL16-k0 (antibody, human IgG1, kappa)
heavy 1: not shown
heavy 2: not shown
light: B1 light
notes: also called He Ab P238_20W
B20: GpH7-A5/GpH7-B3 variant S239_06M/GpL16-k0 (antibody, human IgG1, kappa)
heavy 1: not shown
heavy 2: not shown
light: B1 light
notes: also called He Ab S239_06M
B21: GpH7-A5/GpH7-B3 variant P238_10E/GpL16-k0 (antibody, human IgG1, kappa)
heavy 1: not shown
heavy 2: not shown
light: B1 light
notes: also called He Ab P238_10E
B22: GpH7-A5/GpH7-B3 variant L235_09D/GpL16-k0 (antibody, human IgG1, kappa)
heavy 1: not shown
heavy 2: not shown
light: B1 light
notes: also called He Ab L235_09D
B23: GpH7-A5/GpH7-B3 variant L235_04F/GpL16-k0 (antibody, human IgG1, kappa)
heavy 1: not shown
heavy 2: not shown
light: B1 light
notes: also called He Ab L235_04F
B24: GpH7-A5/GpH7-B3 variant N325_09D/GpL16-k0 (antibody, human IgG1, kappa)
heavy 1: not shown
heavy 2: not shown
light: B1 light
notes: also called He Ab N325_09D
B25: GpH7-A5/GpH7-B3 variant I332_14T/GpL16-k0 (antibody, human IgG1, kappa)
heavy 1: not shown
heavy 2: not shown
light: B1 light
notes: also called He Ab I332_14T
B26: GpH7-A5/GpH7-B3 variant P331_06M/GpL16-k0 (antibody, human IgG1, kappa)
heavy 1: not shown
heavy 2: not shown
light: B1 light
notes: also called He Ab P331_06M
B27: GpH7-A5/GpH7-B3 variant N325_01G/GpL16-k0 (antibody, human IgG1, kappa)
heavy 1: not shown
heavy 2: not shown
light: B1 light
notes: also called He Ab N325_01G
B28: GpH7-A5/GpH7-B3 variant P238_19Q/GpL16-k0 (antibody, human IgG1, kappa)
heavy 1: not shown
heavy 2: not shown
light: B1 light
notes: also called He Ab P238_19Q
B29: GpH7-A5/GpH7-B3 variant P331_03V/GpL16-k0 (antibody, human IgG1, kappa)
heavy 1: not shown
heavy 2: not shown
light: B1 light
notes: also called He Ab P331_03V
B30: GpH7-A5/GpH7-B3 variant P238_09D/GpL16-k0 (antibody, human IgG1, kappa)
heavy 1: not shown
heavy 2: not shown
light: B1 light
notes: also called He Ab P238_09D

Molecular target: T1, FcγRIIb extracellular domain with …
Experiment: SPR (Biacore), relative binding

Row | He/Con_2b | Binder
1 | 174 % of HeCon Ab GpH7-A5/GpH7-B3/GpL16-k0 | B1
2 | 210 % of HeCon Ab GpH7-A5/GpH7-B3/GpL16-k0 | B2
3 | 169 % of HeCon Ab GpH7-A5/GpH7-B3/GpL16-k0 | B3
4 | 172 % of HeCon Ab GpH7-A5/GpH7-B3/GpL16-k0 | B4
5 | 197 % of HeCon Ab GpH7-A5/GpH7-B3/GpL16-k0 | B5
6 | 149 % of HeCon Ab GpH7-A5/GpH7-B3/GpL16-k0 | B6
7 | 116 % of HeCon Ab GpH7-A5/GpH7-B3/GpL16-k0 | B7
8 | 218 % of HeCon Ab GpH7-A5/GpH7-B3/GpL16-k0 | B8
9 | 218 % of HeCon Ab GpH7-A5/GpH7-B3/GpL16-k0 | B9
10 | 144 % of HeCon Ab GpH7-A5/GpH7-B3/GpL16-k0 | B10
11 | 116 % of HeCon Ab GpH7-A5/GpH7-B3/GpL16-k0 | B11
12 | 148 % of HeCon Ab GpH7-A5/GpH7-B3/GpL16-k0 | B12
13 | 114 % of HeCon Ab GpH7-A5/GpH7-B3/GpL16-k0 | B13
14 | 171 % of HeCon Ab GpH7-A5/GpH7-B3/GpL16-k0 | B14
15 | 114 % of HeCon Ab GpH7-A5/GpH7-B3/GpL16-k0 | B15
16 | 120 % of HeCon Ab GpH7-A5/GpH7-B3/GpL16-k0 | B16
17 | 193 % of HeCon Ab GpH7-A5/GpH7-B3/GpL16-k0 | B17
18 | 150 % of HeCon Ab GpH7-A5/GpH7-B3/GpL16-k0 | B18
19 | 123 % of HeCon Ab GpH7-A5/GpH7-B3/GpL16-k0 | B19
20 | 101 % of HeCon Ab GpH7-A5/GpH7-B3/GpL16-k0 | B20
21 | 232 % of HeCon Ab GpH7-A5/GpH7-B3/GpL16-k0 | B21
22 | 106 % of HeCon Ab GpH7-A5/GpH7-B3/GpL16-k0 | B22
23 | 118 % of HeCon Ab GpH7-A5/GpH7-B3/GpL16-k0 | B23
24 | 124 % of HeCon Ab GpH7-A5/GpH7-B3/GpL16-k0 | B24
25 | 106 % of HeCon Ab GpH7-A5/GpH7-B3/GpL16-k0 | B25
26 | 102 % of HeCon Ab GpH7-A5/GpH7-B3/GpL16-k0 | B26
27 | 101 % of HeCon Ab GpH7-A5/GpH7-B3/GpL16-k0 | B27
28 | 110 % of HeCon Ab GpH7-A5/GpH7-B3/GpL16-k0 | B28
29 | 119 % of HeCon Ab GpH7-A5/GpH7-B3/GpL16-k0 | B29
30 | 221 % of HeCon Ab GpH7-A5/GpH7-B3/GpL16-k0 | B30
